Source: US20010023062A1

Tests used:
[1] = biological target: IL-5Rα/IFNaR1 + βc/IFNaR2-2 (human) (UniProt Q01344); assay: cell-based or functional assay
[2] = biological target: IL-5Rα/IFNaR2-2 + βc/IFNaR1 (human) (UniProt Q01344); assay: cell-based or functional assay

colonies in HAT + IL-5 (6-16 gpt selection, transfected 2fTGH cells, 1 ng/ml IL-5) [1] [colonies] | SEAP activity (6-16SEAP reporter, transient transfection of 2fTGH cells), 1 ng/ml IL-5, against untreated cells [2] [fold] | SEAP activity (6-16SEAP reporter, transient transfection of 2fTGH cells), 2 ng/ml IL-5, against untreated cells [2] [fold] | colonies in HAT + IL-5 (6-16 gpt selection, transfected 2fTGH cells, 1 ng/ml IL-5) [2] [colonies] | Substance | colonies surviving in HAT medium without added IL-5 (clone C cells transfected with pEFBOS-hIL-5syn) [2] [colonies]
3 | 5 | 6 | 13 | IL-5 (produced in Sf9 cells using published methodologies) (from UniProt P05113 20-134) (ligand) | –
– | – | – | – | hIL-5syn (human IL-5 expressed by the cells from pEFBOS-hIL-5syn or pMET7-hIL-5syn) (from UniProt P05113 20-134) (ligand) | 6
